Test results reported in US20240279345A1, “ALPHA 5 BETA 1 INTEGRIN BINDING AGENTS AND USES THEREOF” (PASITHEA THERAPEUTICS CORP., priority 2021, published 2024).

Legend:
Assay in all cases: ELISA, coated integrin, supernatant 1:10
[1] = biological target: T1, recombinant human α4β1 integrin (human, UniProt P13612 34-977; P05556 21-728)
T1 construct: bought recombinant heterodimer (R&D Systems cat. 5668-A4) coated on the plate; also called rh-α4β1
Description: (§1) Plates were washed 3 times with Wash Buffer (1× Tris Buffered Saline containing 0.05% Tween20), blocked with 2% BSA in 1×TBS (made from 10× Thermo Scientific Blocker BSA (10×) in TBS; Thermo Fisher Scientific, Waltham, MA, cat. no. 37520) for 2 hours at room temperature (RT) then incubated with hybridoma supernatants diluted 1:10 with Standard Diluent (2% BSA, 1×TBS, 0.05% Tween20). […] Absorbance 450 nm was measured.

[2] = biological target: T2, recombinant human α5β1 integrin (human, UniProt P08648 42-995; P05556 21-728)
T2 construct: also called rh-α5β1
T2 sequence (P08648 42-995 limits assumed, form in doubt, chain 1 of 2): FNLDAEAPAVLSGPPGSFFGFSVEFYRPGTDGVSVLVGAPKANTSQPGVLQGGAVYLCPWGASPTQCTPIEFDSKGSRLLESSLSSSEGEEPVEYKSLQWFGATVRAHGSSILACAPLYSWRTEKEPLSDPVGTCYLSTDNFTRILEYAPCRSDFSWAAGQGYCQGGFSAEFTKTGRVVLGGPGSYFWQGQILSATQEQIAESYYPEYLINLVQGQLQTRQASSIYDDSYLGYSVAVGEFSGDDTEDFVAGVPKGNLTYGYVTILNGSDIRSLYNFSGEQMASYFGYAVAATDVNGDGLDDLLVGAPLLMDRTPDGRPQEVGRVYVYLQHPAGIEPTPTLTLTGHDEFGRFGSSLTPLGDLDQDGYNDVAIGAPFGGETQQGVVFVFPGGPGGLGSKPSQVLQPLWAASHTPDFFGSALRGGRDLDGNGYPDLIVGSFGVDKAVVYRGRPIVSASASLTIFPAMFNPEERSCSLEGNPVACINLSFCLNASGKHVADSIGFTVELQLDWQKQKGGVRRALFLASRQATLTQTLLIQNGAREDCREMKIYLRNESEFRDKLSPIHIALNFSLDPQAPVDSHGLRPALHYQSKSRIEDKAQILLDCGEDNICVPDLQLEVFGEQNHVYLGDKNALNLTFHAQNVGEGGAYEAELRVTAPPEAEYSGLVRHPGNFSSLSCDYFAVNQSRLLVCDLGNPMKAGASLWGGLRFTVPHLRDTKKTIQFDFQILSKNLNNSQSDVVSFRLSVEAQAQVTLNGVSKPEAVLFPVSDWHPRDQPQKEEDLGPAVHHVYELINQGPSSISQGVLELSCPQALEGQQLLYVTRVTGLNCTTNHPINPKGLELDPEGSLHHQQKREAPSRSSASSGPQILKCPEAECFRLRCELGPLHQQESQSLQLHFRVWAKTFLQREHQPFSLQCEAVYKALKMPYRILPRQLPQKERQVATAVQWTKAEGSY
T2 sequence (P05556 21-728 limits assumed, form in doubt, chain 2 of 2): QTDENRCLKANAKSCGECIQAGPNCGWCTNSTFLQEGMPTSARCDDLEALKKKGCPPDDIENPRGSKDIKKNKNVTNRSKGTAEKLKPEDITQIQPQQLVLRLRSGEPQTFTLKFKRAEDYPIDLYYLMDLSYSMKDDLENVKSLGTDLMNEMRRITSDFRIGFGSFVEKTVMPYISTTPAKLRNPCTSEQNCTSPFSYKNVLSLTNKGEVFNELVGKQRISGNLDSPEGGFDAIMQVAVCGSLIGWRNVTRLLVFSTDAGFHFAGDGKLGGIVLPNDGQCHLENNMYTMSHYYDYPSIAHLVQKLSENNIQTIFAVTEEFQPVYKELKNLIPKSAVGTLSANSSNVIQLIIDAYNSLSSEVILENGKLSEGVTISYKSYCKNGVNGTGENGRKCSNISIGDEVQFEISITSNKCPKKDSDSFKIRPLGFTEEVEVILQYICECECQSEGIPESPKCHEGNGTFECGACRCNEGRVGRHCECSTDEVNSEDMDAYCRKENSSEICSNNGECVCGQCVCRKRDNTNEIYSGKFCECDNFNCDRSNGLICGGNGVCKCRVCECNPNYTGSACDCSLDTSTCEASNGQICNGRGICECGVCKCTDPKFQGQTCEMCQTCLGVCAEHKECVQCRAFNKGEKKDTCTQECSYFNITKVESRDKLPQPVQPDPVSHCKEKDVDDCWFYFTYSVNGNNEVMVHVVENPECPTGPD
Description: as §1

[3] = biological target: T3, recombinant mouse α5β1 integrin (mouse, UniProt P11688 45-999; P09055 21-728)
T3 construct: bought recombinant heterodimer (R&D Systems cat. 7728-A5) coated on the plate; also called rm-α5β1
T3 sequence (P11688 45-999 limits assumed, form in doubt, chain 1 of 2): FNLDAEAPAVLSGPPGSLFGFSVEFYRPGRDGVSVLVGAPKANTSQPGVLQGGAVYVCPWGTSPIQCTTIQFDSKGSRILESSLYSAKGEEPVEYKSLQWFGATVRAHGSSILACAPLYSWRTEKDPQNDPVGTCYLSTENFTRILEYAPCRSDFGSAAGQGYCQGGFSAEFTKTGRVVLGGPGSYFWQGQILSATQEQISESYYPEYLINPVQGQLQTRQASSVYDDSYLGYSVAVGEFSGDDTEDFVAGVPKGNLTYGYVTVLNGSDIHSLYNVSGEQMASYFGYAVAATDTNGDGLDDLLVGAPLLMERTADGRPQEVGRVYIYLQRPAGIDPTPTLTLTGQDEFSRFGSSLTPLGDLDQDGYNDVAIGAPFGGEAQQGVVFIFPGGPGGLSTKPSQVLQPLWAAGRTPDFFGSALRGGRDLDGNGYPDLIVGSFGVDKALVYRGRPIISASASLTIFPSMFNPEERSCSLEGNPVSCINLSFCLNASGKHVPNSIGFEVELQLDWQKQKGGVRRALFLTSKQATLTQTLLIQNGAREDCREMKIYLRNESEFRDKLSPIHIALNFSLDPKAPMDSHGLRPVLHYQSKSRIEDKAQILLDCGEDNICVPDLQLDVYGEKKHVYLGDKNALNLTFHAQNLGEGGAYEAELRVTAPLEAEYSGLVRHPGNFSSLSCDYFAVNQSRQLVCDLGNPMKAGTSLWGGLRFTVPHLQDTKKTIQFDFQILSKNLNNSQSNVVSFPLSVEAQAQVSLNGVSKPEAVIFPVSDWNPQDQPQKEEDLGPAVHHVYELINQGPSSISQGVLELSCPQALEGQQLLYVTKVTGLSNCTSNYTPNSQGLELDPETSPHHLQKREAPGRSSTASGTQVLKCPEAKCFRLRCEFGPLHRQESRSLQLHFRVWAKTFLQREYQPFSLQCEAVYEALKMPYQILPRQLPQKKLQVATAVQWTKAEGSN
T3 sequence (P09055 21-728 limits assumed, form in doubt, chain 2 of 2): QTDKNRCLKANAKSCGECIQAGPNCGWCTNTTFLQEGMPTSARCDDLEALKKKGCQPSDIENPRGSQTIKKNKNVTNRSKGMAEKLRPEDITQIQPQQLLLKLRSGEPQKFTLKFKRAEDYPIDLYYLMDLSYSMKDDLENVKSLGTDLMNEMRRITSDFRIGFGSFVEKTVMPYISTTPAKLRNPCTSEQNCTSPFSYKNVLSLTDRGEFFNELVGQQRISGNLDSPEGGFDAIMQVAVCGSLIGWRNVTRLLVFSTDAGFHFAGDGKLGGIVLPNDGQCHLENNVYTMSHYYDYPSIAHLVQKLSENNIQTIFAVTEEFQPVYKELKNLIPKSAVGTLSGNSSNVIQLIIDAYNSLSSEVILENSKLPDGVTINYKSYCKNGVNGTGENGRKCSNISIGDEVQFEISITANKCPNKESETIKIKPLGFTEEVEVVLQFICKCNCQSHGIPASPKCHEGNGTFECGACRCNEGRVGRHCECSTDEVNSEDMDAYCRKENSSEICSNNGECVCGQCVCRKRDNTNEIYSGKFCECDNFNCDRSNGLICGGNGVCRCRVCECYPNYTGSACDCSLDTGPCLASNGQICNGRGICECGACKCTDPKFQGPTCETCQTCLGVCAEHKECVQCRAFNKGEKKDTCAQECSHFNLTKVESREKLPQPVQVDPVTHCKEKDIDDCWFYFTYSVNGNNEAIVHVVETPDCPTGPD
Description: as §1

T1 sequence (P13612 34-977 limits assumed, form in doubt, chain 1 of 2): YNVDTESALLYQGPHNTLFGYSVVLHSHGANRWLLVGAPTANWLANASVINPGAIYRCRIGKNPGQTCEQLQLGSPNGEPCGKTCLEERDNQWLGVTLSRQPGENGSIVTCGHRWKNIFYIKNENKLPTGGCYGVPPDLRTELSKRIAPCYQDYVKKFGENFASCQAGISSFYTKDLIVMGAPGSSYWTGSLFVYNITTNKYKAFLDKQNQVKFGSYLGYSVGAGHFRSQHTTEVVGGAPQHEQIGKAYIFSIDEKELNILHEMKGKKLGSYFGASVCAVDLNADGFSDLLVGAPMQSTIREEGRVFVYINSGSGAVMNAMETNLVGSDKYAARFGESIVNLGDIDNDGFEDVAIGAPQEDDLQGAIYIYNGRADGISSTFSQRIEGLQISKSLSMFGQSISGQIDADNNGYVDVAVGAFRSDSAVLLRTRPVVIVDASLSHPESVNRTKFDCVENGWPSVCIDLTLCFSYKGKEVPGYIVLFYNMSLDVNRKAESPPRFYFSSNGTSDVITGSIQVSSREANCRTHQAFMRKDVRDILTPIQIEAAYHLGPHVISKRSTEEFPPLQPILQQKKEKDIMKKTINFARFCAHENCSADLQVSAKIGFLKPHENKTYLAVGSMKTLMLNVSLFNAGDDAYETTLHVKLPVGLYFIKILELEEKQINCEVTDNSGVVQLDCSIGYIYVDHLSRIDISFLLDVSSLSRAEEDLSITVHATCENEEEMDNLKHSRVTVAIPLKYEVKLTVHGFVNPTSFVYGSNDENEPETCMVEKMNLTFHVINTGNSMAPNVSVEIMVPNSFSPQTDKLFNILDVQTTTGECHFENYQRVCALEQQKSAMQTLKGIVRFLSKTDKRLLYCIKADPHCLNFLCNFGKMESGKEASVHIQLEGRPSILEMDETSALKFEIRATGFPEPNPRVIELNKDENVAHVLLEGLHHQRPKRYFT
T1 sequence (P05556 21-728 limits assumed, form in doubt, chain 2 of 2): as the sequence (P05556 21-728 limits assumed, form in doubt, chain 2 of 2) above

Row | Binder | Absorbance 450 nm [1] [A450] | Absorbance 450 nm [2] [A450] | Absorbance 450 nm [3] [A450]
1 | A-3A08 (antibody, V domains shown, mouse hybridoma supernatant) VH: QVQLKESGPGLVAPSQSLSITCTISGFSLTTYGVHWVRQPPGKGLEWLVVIWSDGSTTYNSALKSRLNITKDNSKSQVFLKMNSLQTDDTAMYYCVRHGGLLRRDAMDYWGQGTSVTVSS VL: QIVLTQSPAIMSASLGERVTMTCTASSSVSSNSFHWYQQKPGSSPKLWLYSTSNLASGVPARFSGSGSGTSYSLTISSMEAEDAATYYCHQYLRSPPTFGGGTKLEIK | 0.0769 | 0.352 | –
2 | A-4G02 (antibody, V domains shown, mouse hybridoma supernatant) VH: QVQLKESGPGLVAPSQSLSITCTISGFSLTSYGVHWVRQPPGKGLEWLVVIWSDGSTTYNSTLKSRLSISKDNSKSQVFFKMNSLQTDDTAMYYCARHYDYDGDWFAYWGQGTLVTVSA VL: QIVLTQSPAIMSASLGERVTMTCTASSRVSSNSLHWYQQKPGSSPKLWIYSTSNLASGVPARFSGSGSGTSYSLTISSMEAEDAATYYCHQYLRSPPTFGGGTKLEIK | 0.0801 | 0.687 | 0.0959
3 | A-15B08 (antibody, V domains shown, mouse hybridoma supernatant in this assay) VH: QVQLKESGPGLVAPSQSLSITCTISGFSLTSYGVHWVRQPPGKGLEWLVVIWSDGSTTYNSTLKSRLSISKDNSKSQVFFKMNSLQTDDTAMYYCARHYDYDGDWFAYWGQGTLVTVSA VL: QIVLTQSPAIMSASLGERVTMTCTASSRVSSNSLHWYQQKPGSSPKLWIYSTSNLASGVPARFSGSGSGTSYSLTISSMEAEDAATYYCHQYLRSPPTFGGGTKLEIK | 0.0855 | 0.824 | 0.0924
4 | A-7D06 (antibody, V domains shown, mouse hybridoma supernatant) VH: QVQLKESGPGLVAPSQSLSITCTISGFSLTTYGVHWVRQPPGKGLEWLVVIWSDGSTTYNSALKSRLNITKDNSKSQVFLKMNSLQTDDTAMYYCVRHGGLLRRDAMDYWGQGTSVTVSS VL: QIVLTQSPAIMSASLGERVTMTCTASSSVSSNSFHWYQQKPGSSPKLWLYSTSNLASGVPARFSGSGSGTSYSLTISSMEAEDAATYYCHQYLRSPPTFGGGTKLEIK | 0.0848 | 0.613 | 0.0755

Continued, values first:

Row | Absorbance 450 nm [1] [A450] | Absorbance 450 nm [2] [A450] | Absorbance 450 nm [3] [A450] | Binder
5 | 0.0843 | 0.519 | 0.0766 | A-11G01 (antibody, V domains shown, mouse hybridoma supernatant) VH: QVQLKESGPGLVAPSQSLSITCTISGFSLTTYGVHWVRQPPGKGLEWLVVIWSDGSTTYNSALKSRLNITKDNSKSQVFLKMNSLQTDDTAMYYCVRHGGLLRRDAMDYWGQGTSVTVSS VL: QIVLTQSPAIMSASLGERVTMTCTASSSVSSNSFHWYQQKPGSSPKLWLYSTSNLASGVPARFSGSGSGTSYSLTISSMEAEDAATYYCHQYLRSPPTFGGGTKLEIK
6 | 0.108 | 1.17 | 0.11 | A-14G08 (antibody, V domains shown, mouse hybridoma supernatant) VH: QVQLQQPGAELVKPGASVKLSCKASGYTFTIYWINWVKQRPGQGLEWIGKIYPGSISTDYNEKFKSKATLTVDTSSSTAYMQLSSLTSDDSAVYYCAITGTGGLAYWGQGTLVTVSA VL: ENVLTQSPAIMSASLGEKVTMTCRASSSVNYMYWYQQKSDASPKLWIYFTSSLAPGVPGRFSGSGSGNSYSLTISTMEGEDAATYYCQQFTTSPFTFGSGTKLEIK
7 | 0.081 | 1.25 | 0.0799 | A-15H11 (antibody, V domains shown, mouse hybridoma supernatant) VH: QVQLQQPGAELVKPGASVKLSCKASGYTFTIYWINWVKQRPGQGLEWIGKIYPGSISTDYNEKFKSKATLTVDTSSSTAYMQLSSLTSDDSAVYYCAITGTGGLAYWGQGTLVTVSA VL: ENVLTQSPAIMSASLGEKVTMTCRASSSVNYMYWYQQKSDASPKLWIYFTSSLAPGVPGRFSGSGSGNSYSLTISTMEGEDAATYYCQQFTTSPFTFGSGTKLEIK
